These results are taken from patent US20150024066A1, “METHODS FOR […] TREATING EXCESS WEIGHT USING OXYNTOMODULIN” (IMPERIAL INNOVATIONS, published 2015).

The target in assay [1] is T1, GLP-1 receptor (rat, UniProt P32301). Description: competition of [^125I]GLP-1 binding to rat hypothalamic membranes; reference GLP-1.
In assay [2] the target is T1, GLP-1 receptor. Description: competition of [^125I]GLP-1 binding to rat hypothalamic membranes, unlabeled peptide varied. How it is done:
Membranes were incubated at room temperature for 90 min. Bound and free radioactivity were separated by centrifugation (2 min, 4° C.). Pelleted membranes were washed with assay buffer (0.5 ml, ice-cold), and the membranes were centrifuged as described above. The supernatant was removed, and the radioactivity in the pellet was counted using a γ-counter. […] All curves were constructed with points in triplicate. IC₅₀ values were calculated using the Prism 3 program (GraphPad Software, Inc., San Diego, Calif.).

As usually defined, the IC50 is the point on the concentration scale where inhibition reaches its midpoint. Read a high IC50 as weaker potency.

B1: oxyntomodulin (OXM) (peptide)
peptide: HSQGTFTSDYSKYLDSRRAQDFVQWLMNTKRNKNNIA
B1: the “affinity relative to GLP-1” value with GLP-1 receptor [1] is ~2 orders of magnitude weaker. The 50% inhibitory concentration (IC50) in the assay with GLP-1 receptor [2] came to 8.2 nM.
